Measurements: paper doi:10.1101/2021.08.20.457142

B1: MKK6 D-site peptide / p38-alpha (MAPK14) L195A, full length (parent complex)
chain 1: SQSKGKKRNPGLKIPKEAFEQP
chain 2: MSQERPTFYRQELNKTVWEVPERYQNLSPVGSGAYGSVCAAFDTKTGHRVAVKKLSRPFQSIIHAKRTYRELRLLKHMKHENVIGLLDVFTPARSLEEFNDVYLVTHLMGADLNNIVKCQKLTDDHVQFLIYQILRGLKYIHSADIIHRDLKPSNLAVNEDCELKILDFGLARHTDDEMTGYVATRWYRAPEIMANWMHYNQTVDIWSVGCIMAELLTGRTLFPGTDHIDQLKLILRLVGTPGAELLKKISSESARNYIQSLAQMPKMNFANVFIGANPLAVDLLEKMLVLDSDKRITAAQALAHAYFAQYHDPDDEPVAEPYDQSFESRDFLIDEWKSLTYDEVISFVPPPLDQEEMES

Variants of: B1

Variant	screen value
chain 1 K4T	0.747 Z-score of the enrichment rate within one screen of 711 sequences
chain 1 K4S	0.887 Z-score of the enrichment rate within one screen of 711 sequences
chain 1 K4W	1.28 Z-score of the enrichment rate within one screen of 711 sequences
chain 1 K4A	0.525 Z-score of the enrichment rate within one screen of 711 sequences
chain 1 K4N	0.364 Z-score of the enrichment rate within one screen of 711 sequences
chain 1 K4E	0.242 Z-score of the enrichment rate within one screen of 711 sequences
chain 1 K4M	0.845 Z-score of the enrichment rate within one screen of 711 sequences
chain 1 K4R	2.04 Z-score of the enrichment rate within one screen of 711 sequences
chain 1 K6A, chain 1 G11A	0.561 Z-score of the enrichment rate within one screen of 711 sequences
chain 1 N9A, chain 1 I14A	-0.573 Z-score of the enrichment rate within one screen of 711 sequences
chain 1 K6A, chain 1 P10A	-0.354 Z-score of the enrichment rate within one screen of 711 sequences
chain 1 I14F	-0.0574 Z-score of the enrichment rate within one screen of 711 sequences
chain 1 I14H	-0.748 Z-score of the enrichment rate within one screen of 711 sequences
chain 1 I14L	3.12 Z-score of the enrichment rate within one screen of 711 sequences
chain 1 I14D	-0.97 Z-score of the enrichment rate within one screen of 711 sequences
chain 1 I14E	-0.921 Z-score of the enrichment rate within one screen of 711 sequences
chain 1 I14K	-0.966 Z-score of the enrichment rate within one screen of 711 sequences
chain 1 I14Q	-1.07 Z-score of the enrichment rate within one screen of 711 sequences
chain 1 I14V	-0.578 Z-score of the enrichment rate within one screen of 711 sequences
chain 1 I14A	-0.785 Z-score of the enrichment rate within one screen of 711 sequences
chain 1 K4A, chain 1 K16A	0.0782 Z-score of the enrichment rate within one screen of 711 sequences
chain 1 P10A, chain 1 G11A	0.0844 Z-score of the enrichment rate within one screen of 711 sequences
chain 1 K4A, chain 1 I14A	-1.18 Z-score of the enrichment rate within one screen of 711 sequences
chain 1 K7A, chain 1 I14A	-1.1 Z-score of the enrichment rate within one screen of 711 sequences
chain 1 K4A, chain 1 K7A	-0.395 Z-score of the enrichment rate within one screen of 711 sequences
chain 1 N9A, chain 1 P15A	1.61 Z-score of the enrichment rate within one screen of 711 sequences

Variant	screen value
chain 1 K6A, chain 1 K16A	0.354 Z-score of the enrichment rate within one screen of 711 sequences
chain 1 K7A, chain 1 L12A	-1.2 Z-score of the enrichment rate within one screen of 711 sequences
chain 1 K13A, chain 1 P15A	-0.309 Z-score of the enrichment rate within one screen of 711 sequences
chain 1 G11D	0.0949 Z-score of the enrichment rate within one screen of 711 sequences
chain 1 G11Q	1.09 Z-score of the enrichment rate within one screen of 711 sequences
chain 1 G11C	1.37 Z-score of the enrichment rate within one screen of 711 sequences
chain 1 G11N	1.3 Z-score of the enrichment rate within one screen of 711 sequences
chain 1 G11P	-0.211 Z-score of the enrichment rate within one screen of 711 sequences
chain 1 G11K	2.23 Z-score of the enrichment rate within one screen of 711 sequences
chain 1 G11H	1.37 Z-score of the enrichment rate within one screen of 711 sequences
chain 1 G11V	0.807 Z-score of the enrichment rate within one screen of 711 sequences
chain 1 G11L	1 Z-score of the enrichment rate within one screen of 711 sequences
chain 1 K7A, chain 1 K13A	-0.71 Z-score of the enrichment rate within one screen of 711 sequences
chain 1 G11A, chain 1 I14A	-0.938 Z-score of the enrichment rate within one screen of 711 sequences
chain 1 P10A, chain 1 I14A	-0.954 Z-score of the enrichment rate within one screen of 711 sequences
chain 1 P10A	0.621 Z-score of the enrichment rate within one screen of 711 sequences
chain 1 L12A, chain 1 I14A	-1.27 Z-score of the enrichment rate within one screen of 711 sequences
chain 1 G11A, chain 1 P15A	1.79 Z-score of the enrichment rate within one screen of 711 sequences
chain 1 K13C	-0.0746 Z-score of the enrichment rate within one screen of 711 sequences
chain 1 K13H	-0.111 Z-score of the enrichment rate within one screen of 711 sequences
chain 1 K13P	-0.836 Z-score of the enrichment rate within one screen of 711 sequences
chain 1 K13E	-0.899 Z-score of the enrichment rate within one screen of 711 sequences
chain 1 K13W	0.592 Z-score of the enrichment rate within one screen of 711 sequences
chain 1 K13T	0.352 Z-score of the enrichment rate within one screen of 711 sequences
chain 1 K13R	1.63 Z-score of the enrichment rate within one screen of 711 sequences
chain 1 G5A, chain 1 G11A	1.18 Z-score of the enrichment rate within one screen of 711 sequences

Results, then the variant that gave them:

screen value	Variant
-0.354 Z-score of the enrichment rate within one screen of 711 sequences	chain 1 R8A, chain 1 P10A
0.893 Z-score of the enrichment rate within one screen of 711 sequences	chain 1 S3A, chain 1 K16A
-0.113 Z-score of the enrichment rate within one screen of 711 sequences	chain 1 R8A, chain 1 N9A
0.582 Z-score of the enrichment rate within one screen of 711 sequences	chain 1 S3A, chain 1 K4A
0.46 Z-score of the enrichment rate within one screen of 711 sequences	chain 1 S3A, chain 1 K7A
-0.276 Z-score of the enrichment rate within one screen of 711 sequences	chain 1 P10A, chain 1 K16A
1.3 Z-score of the enrichment rate within one screen of 711 sequences	chain 1 S3A, chain 1 N9A
0.0482 Z-score of the enrichment rate within one screen of 711 sequences	chain 1 P15A, chain 1 K16N
1.54 Z-score of the enrichment rate within one screen of 711 sequences	chain 1 P15A, chain 1 K16A
-0.13 Z-score of the enrichment rate within one screen of 711 sequences	chain 1 R8C
-0.224 Z-score of the enrichment rate within one screen of 711 sequences	chain 1 R8M
0.378 Z-score of the enrichment rate within one screen of 711 sequences	chain 1 R8I
-1 Z-score of the enrichment rate within one screen of 711 sequences	chain 1 R8D
0.227 Z-score of the enrichment rate within one screen of 711 sequences	chain 1 R8T
0.072 Z-score of the enrichment rate within one screen of 711 sequences	chain 1 R8H
-0.149 Z-score of the enrichment rate within one screen of 711 sequences	chain 1 R8A
0.241 Z-score of the enrichment rate within one screen of 711 sequences	chain 1 P10G
0.699 Z-score of the enrichment rate within one screen of 711 sequences	chain 1 P10T
0.911 Z-score of the enrichment rate within one screen of 711 sequences	chain 1 P10W
-0.469 Z-score of the enrichment rate within one screen of 711 sequences	chain 1 P10D
0.742 Z-score of the enrichment rate within one screen of 711 sequences	chain 1 P10V
0.865 Z-score of the enrichment rate within one screen of 711 sequences	chain 1 P10F
-0.936 Z-score of the enrichment rate within one screen of 711 sequences	chain 1 S3A, chain 1 I14A
